Reference: the supplement of paper PMC9170038

System: MS2 coat protein
Test: apparent KD of MS2 coat protein; designed switch direction (-1 OFF switch, 1 ON switch): 1; higher = weaker reporter binding
In short: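 RNA switches sharing common flanks were transcribed by stalled E. coli RNA polymerase on Illumina chips. A doubling series of SNAP-549-labelled MS2 coat protein, from 0.7 or 1.5 nM to 3 µM, was applied in Tris-HCl pH 7.5 buffer with KCl, MgCl2, BSA, DTT, tRNA and Tween-20. Each step lasted 0.8–1.5 h at the bottom of the series and 10–20 min at the top. Normalised cluster fluorescence was curve-fitted, giving apparent KD as the per-design median over clusters.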

[1] = Eterna round: R95, input ligand: FMN 200 uM
[2] = Eterna round: R95, input ligand: microRNA oligo, concentration not stated
[3] = Eterna round: R95, input ligand: none
[4] = input ligand: microRNA oligo, concentration not stated

| Sequence | apparent KD of MS2 coat protein [1] [nM] | apparent KD of MS2 coat protein [2] [nM] | apparent KD of MS2 coat protein [3] [nM] | apparent KD of MS2 coat protein (input ligand: FMN 200 uM) [nM] | apparent KD of MS2 coat protein [4] [nM] | apparent KD of MS2 coat protein (input ligand: none) [nM] |
| --- | --- | --- | --- | --- | --- | --- |
| UGGUAACAUGAGGAUCACCCAUGUCAAAUGAAUCGAGGAUAUGGGAAUUAAUAAUAUAAACUAGAAGGCGAAUUUG [Altered State 1-6 - Jieux - Same State 1] (puzzle: Same State 1) | 85.6 | 123 | 52.7 | – | – | – |
| UGGUACAUGGGAGGAUAUCCUCAGGAGACAUGAGGAUCACCCAUGUAAUUAAAGCCGAAAGGCAUGGAGAAGGCCCAUGUACCU [JL SSNG1 3.79] (Eterna round: R96, puzzle: Same State NG 2) | – | – | – | 20.1 | 172 | 131 |
| UGUAAACAUGAGGAUCACCCAUGUAAUAUAAUGGGAGGAUAUCUGAAUUAAUUAAAUUAAGGAGAAGGCCUAAUGG [Mat - Same State 1 - Mod of Eli - D48] (puzzle: Same State 1) | 79.8 | 995 | 563 | – | – | – |
| UGUUAACAUGAGGAUCACCCAUGUCAAAUGAAUCGAGGAUAUGGAAAGUAAUAAGAUGAACUAGAAGGCGAAGUUG [Altered State 1-18 - Jieux - Same State 1] (puzzle: Same State 1) | 46.2 | 87.9 | 86.7 | – | – | – |
| UGUUGUAUUACAGGAUAUCUAGCAUUUUUAUUUAGAGAAGGGUAUUCACAUGAGGAUCACCCAUGUAUAUACGAGGAAGUUGUG [JMF's solution 32] (Eterna round: R96, puzzle: Same State NG 1) | – | – | – | 54.9 | 42.1 | 51.9 |
| UGUUGUAUUACAGGAUAUCUAGUAUUUUCAUUUAGAGAAGGGUAUUCACAUGAGGAUCACCCAUGUAUAUACGAGGAAGUUGUG [JMF's solution 45] (Eterna round: R96, puzzle: Same State NG 1) | – | – | – | – | 34.7 | – |
| UGUUGUAUUACAGGAUAUCUAUAAUUUUUAUUUAGAGAAGGGUAUUCACAUGAGGAUCACCCAUGUAUAUACGAGGAAGUUGUG [JMF's solution 10] (Eterna round: R96, puzzle: Same State NG 1) | – | – | – | – | 31.1 | – |
| UGUUGUAUUACAGGAUAUCUAUGAUUUUAAUUUAGAGAAGGGUAUUCACAUGAGGAUCACCCAUGUAUAUACGAGGAAGUUGUG [JMF's solution 63] (Eterna round: R96, puzzle: Same State NG 1) | – | – | – | – | 40.2 | – |
| UGUUGUAUUACAGGAUAUCUAUGAUUUUUAUUAAGAGAAGGGUAUUCACAUGAGGAUCACCCAUGUAUAUACGAGGAAGUUGUG [JMF's solution 70] (Eterna round: R96, puzzle: Same State NG 1) | – | – | – | – | 25.6 | – |
| UGUUGUAUUACAGGAUAUCUAUUAUUUUUAAUUAGAGAAGGGUAUUCACAUGAGGAUCACCCAUGUAUAUACGAGGAAGUUGUG [JMF's solution 25] (Eterna round: R96, puzzle: Same State NG 1) | – | – | – | – | 27.5 | – |
| UGUUUGUUGUGAGGAUAUACAUACACCUUACAUGAGGAUCACCCAUGUUGUUACCUUGAUAGUUAGUAGAAGGCACUUGGUUAU [JR_SSNG2_Sub046] (Eterna round: R96, puzzle: Same State NG 2) | – | – | – | 243 | 140 | 261 |
| UGUUUGUUGUGAGGAUAUACAUACACCUUACAUGAGGAUCACCCAUGUUUUAAUUUUGAUAGUUAGUAGAAGGCACAUGAUUAU [JR_SSNG2_Sub044] (Eterna round: R96, puzzle: Same State NG 2) | – | – | – | 21.3 | 28.1 | 46.5 |
| UUAACAUGAGGAUCACCCAUGUAUACGUAGUUUGCAUUUUGACAGGAUAUUGAAUAUCUAUAUAGCAAGAAGGGUCGUUAGUCU [JR_SSNG3_Sub007] (Eterna round: R96, puzzle: Same State NG 3) | – | – | – | 61 | 49.1 | 56.7 |
| UUAACAUGAGGAUCACCCAUGUAUGCGUUGCUUGCAUUUUGACAGGAUAUUGUUUAUCCAUAUAGCAAGAAGGGUCGUUAGUCU [JR_SSNG3_Sub010] (Eterna round: R96, puzzle: Same State NG 3) | – | – | – | 80.9 | 63.1 | 79.1 |
| UUAAGCCACGAGCAGGAUAUGUAUUAAAAUACAUGAGGAUCACCCAUGUGCAGGUGUAACACCUGACAGAAGGGCCAAUCGCGGC [Soondi - 1] (puzzle: Same State 2) | 256 | 366 | 461 | – | – | – |
| UUAAUAAAGUAAGGAUAUACAUGAGGAUCACUCGUAGAAGGUACUAUACAUGAGGAUCACCCAUGUUCCGGUCAGAAGACUGGA [Mat - Same State NG 1 - JL mod - D4] (Eterna round: R96, puzzle: Same State NG 1) | – | – | – | – | 440 | – |

| Sequence | apparent KD of MS2 coat protein [1] [nM] | apparent KD of MS2 coat protein [2] [nM] | apparent KD of MS2 coat protein [3] [nM] | apparent KD of MS2 coat protein (input ligand: FMN 200 uM) [nM] | apparent KD of MS2 coat protein [4] [nM] | apparent KD of MS2 coat protein (input ligand: none) [nM] |
| --- | --- | --- | --- | --- | --- | --- |
| UUAAUAAUGAUAGGAUAUACAUGAGGAAUCCUCGUAGAAGGAUCAUGACAUGAGGAUCACCCAUGUAACGCUCAGAAGAGCGUA [Mat - Same State NG 1 - JL mod - D43] (Eterna round: R96, puzzle: Same State NG 1) | – | – | – | 738 | 30.9 | 516 |
| UUAAUAAUGAUAGGAUAUACAUGAGGAAUUCUCGUAGAAGGAUCAUGACAUGAGGAUCACCCAUGUAACGCUCGAAAGAGCGUA [Mat - Same State NG 1 - JL mod - D39] (Eterna round: R96, puzzle: Same State NG 1) | – | – | – | 513 | 394 | 662 |
| UUAAUGAAGUAAGGAUAUACAUGAGGAUCACUCGUAGAAGGUACUAUACAUGAGGAUCACCCAUGUUCCGGUCCGUAGACUGGA [JL SSNG1 1.02] (Eterna round: R96, puzzle: Same State NG 1) | – | – | – | 1600 | 236 | 841 |
| UUAAUGAUGAUAGGAUAUACAUGAGGAAUUCUCGUAGAAGGAUCAUGACAUGAGGAUCACCCAUGUAUCGCUCGAUAGAGCGUA [Mat - Same State NG 1 - JL mod - D34] (Eterna round: R96, puzzle: Same State NG 1) | – | – | – | 844 | 142 | 158 |
| UUAAUGAUGUAAGGAUAUACAUGAGGAUUUCUCGUAGAAGGUACAAGACAUGAGGAUCACCCAUGUGUCGCUCGAAAGAGCGUA [Mat - Same State NG 1 - JL mod - D20] (Eterna round: R96, puzzle: Same State NG 1) | – | – | – | 282 | 113 | 316 |
| UUAAUUUACUGAGGAUAUCGUGUCGACUGAGGUGACAUGAGGAUCACCCAUGUGAGAAGUGGUAUCGAGAAGGCAGUAUUCAUA [JR_SSNG2_Sub022] (Eterna round: R96, puzzle: Same State NG 2) | – | – | – | 92.6 | 306 | 506 |
| UUACAGUGCGGGUAGGAUAUGUAGGGUGGUACAUGAGGAUCACCCAUGUAUCCACCCUUCGACCGGCAGAAGGGCCUGUCACUAC [Atarzale] (Eterna round: R96, puzzle: Same State 2) | – | – | – | 14 | 12.1 | 19.8 |
| UUACUCAUGUAAGGAUAUGCAGCCGAAACGGCUGCAGAAGGUACUAUAAUACAUGAGGAUCACCCAUGUCUUUUUAAUUUAGAC [Mat - Same State NG 1 - JL mod - D82] (Eterna round: R96, puzzle: Same State NG 1) | – | – | – | – | 37 | – |
| UUAGUCAUGUAAGGAUAUGCAGCCGUUUCGGCUGCAGAAGGUACUAUAAUUACAUGAGGAUCACCCAUGUUAUAAAAUUUAUAU [JL SSNG1 1.24] (Eterna round: R96, puzzle: Same State NG 1) | – | – | – | 19.9 | 25 | 36.6 |
| UUAUAACAUGAGGAUCACCCAUGUCAACAAAGUCGAGGAUAUGGGCAUAGAGGAUAAGAACCAGAAGGCGAAUAUU [Mat - Same State 1 - Mod of UCT - D39] (puzzle: Same State 1) | 70.8 | 150 | 163 | – | – | – |
| UUAUCUUUCCGAGGAUAUCCAUAUAAUUUACAUGAGGAUCACCCAUGUUAUUGGGAGUUUUUUUAGGAGAAGGCGGUUGUAGAU [JR_SSNG2_Sub051] (Eterna round: R96, puzzle: Same State NG 2) | – | – | – | 85.1 | 61.4 | 71.1 |
| UUCACCUUAUUUUACAUGAGGAUCACCCAUGUUUUUUUUACGUAGGAUAUCGAUGCUUGUUUAUUCGAGAAGGACGAUGUAAGU [JR_SSND3_Sub053] (Eterna round: R96, puzzle: Same State NG 3) | – | – | – | – | 28 | – |
| UUGAACAAUUAAGGAUAUCGAGUACAUAUGUUAAACAUGAGGAUCACCCAUGUGGGUUGCGGUAUCGAGAAGGUAAAUUAGAAG [Mat - Same State NG 2 - JL mod - D57] (Eterna round: R96, puzzle: Same State NG 2) | – | – | – | 22.8 | 25.3 | 34 |
| UUGAAGAAUUAAGGAUAUCGAGUACAUAUGUUAAACAUGAGGAUCACCCAUGUGGGUUGCGGUAUCGAGAAGGUAAAAUACAAG [Mat - Same State NG 2 - JL mod - D58] (Eterna round: R96, puzzle: Same State NG 2) | – | – | – | 28.8 | 26.6 | 33.8 |
| UUGAAGAAUUAAGGAUAUUGAAUACAUAUGUUUAACAUGAGGAUCACCCAUGUGGGUUGCGGUAUCGAGAAGGUAAAAUAAUAG [Mat - Same State NG 2 - JL mod - D4] (Eterna round: R96, puzzle: Same State NG 2) | – | – | – | 118 | 91.8 | 110 |
